{"source": "paper PMC12794319", "about": "(Biochemical Journal, 2025)", "binders": {"B1": {"name": "human HAI-2 (hepatocyte growth factor activator inhibitor-2) ectodomain (domain or fragment, UniProt O43291-1 36-196, looked up)", "chain": "DFCLVSKVVGRCRASMPRWWYNVTDGSCQLFVYGGCDGNSNNYLTKEECLKKCATVTENATGDLATSRNAADSSVPSAPRRQDSEDHSSDMFNYEEYCTANAVTGPCRASFPRWYFDVERNSCNNFIYGGCRGNKNSYRSEEACMLRCFRQQENPPLPLGS", "notes": "source: FreeStyle 293 F (HEK293F), pcDNA3.1; purified (Ni-NTA IMAC, size-exclusion chromatography)"}}, "key": {"[1]": {"molecular_target": "T1, human wildtype TMPRSS2 ectodomain (activated, two-chain) (human, UniProt O15393-1 107-255; O15393-1 256-492)", "T1 construct": "TMPRSS2, human, UniProt O15393-1; held to the SP domain by a disulfide bond after cleavage; Expressed as one chain 107-492 with an Ig kappa leader; also called Human TMPRSS2; Hu TMPRSS2; source: FreeStyle 293 F (HEK293F), co-transfected with full-length HAI-2; purified from the supernatant (G25, Ni-NTA IMAC, size-exclusion chromatography)", "T1 sequence (O15393 107-255, chain 1 of 2)": "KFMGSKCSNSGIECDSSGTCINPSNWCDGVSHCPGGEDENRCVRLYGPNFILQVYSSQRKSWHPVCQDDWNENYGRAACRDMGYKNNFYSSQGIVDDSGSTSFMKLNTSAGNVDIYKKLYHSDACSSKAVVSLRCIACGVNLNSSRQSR", "T1 sequence (O15393 256-492, chain 2 of 2)": "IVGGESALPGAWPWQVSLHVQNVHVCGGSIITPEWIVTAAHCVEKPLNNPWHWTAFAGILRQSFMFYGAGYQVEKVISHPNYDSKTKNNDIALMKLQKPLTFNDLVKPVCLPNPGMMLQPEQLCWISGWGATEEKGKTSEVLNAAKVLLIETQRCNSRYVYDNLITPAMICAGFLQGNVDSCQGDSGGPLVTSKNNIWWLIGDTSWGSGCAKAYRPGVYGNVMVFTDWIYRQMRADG", "experiment": "enzyme inhibition kinetics (tight-binding inhibition, fit to the Morrison equation); 50 pM human or hamster TMPRSS2 incubated with a 2/3-fold serial dilution of HAI-2 (300 to 5.2 pM) for 16 hours at room temperature; rates on the fluorogenic substrate Boc-Gln-Ala-Arg-AMC; equilibrium inhibitory constant; triplicate", "settings": "both partners purified"}, "[2]": {"molecular_target": "T2, Syrian hamster wildtype TMPRSS2 ectodomain (activated, two-chain) (Syrian hamster (Mesocricetus auratus), UniProt A0A1U8C7X1 108-254; A0A1U8C7X1 255-491)", "T2 construct": "TMPRSS2, Syrian hamster (Mesocricetus auratus), UniProt printed as 'A0A1U8C7 × 1'; N-terminal non-catalytic part of the ectodomain construct 108-491 up to the arginine of the scissile bond, R254; Expressed as one chain 108-491 with an Ig kappa leader; also called Hamster TMPRSS2; Ham TMPRSS2; source: FreeStyle 293 F (HEK293F), co-transfected with full-length HAI-2; purified from the supernatant …", "T2 sequence (chain, as listed by the source, chain 1 of 2)": "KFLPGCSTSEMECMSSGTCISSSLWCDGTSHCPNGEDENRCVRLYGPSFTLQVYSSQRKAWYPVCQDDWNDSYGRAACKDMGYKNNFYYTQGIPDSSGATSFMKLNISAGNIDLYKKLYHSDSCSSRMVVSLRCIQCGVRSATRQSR", "T2 sequence (chain, as listed by the source, chain 2 of 2)": "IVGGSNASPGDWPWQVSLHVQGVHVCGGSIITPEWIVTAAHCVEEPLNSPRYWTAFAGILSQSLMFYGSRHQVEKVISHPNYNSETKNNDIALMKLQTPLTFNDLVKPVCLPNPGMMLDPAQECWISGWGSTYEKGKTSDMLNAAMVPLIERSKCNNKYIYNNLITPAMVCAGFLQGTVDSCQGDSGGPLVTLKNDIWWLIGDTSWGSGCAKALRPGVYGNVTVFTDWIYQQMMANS", "experiment": "enzyme inhibition kinetics (tight-binding inhibition, fit to the Morrison equation); 50 pM human or hamster TMPRSS2 incubated with a 2/3-fold serial dilution of HAI-2 (300 to 5.2 pM) for 16 hours at room temperature; rates on the fluorogenic substrate Boc-Gln-Ala-Arg-AMC; equilibrium inhibitory constant; triplicate", "settings": "both partners purified"}}}
{"binder": "B1", "values": [{"measurement": "Ki", "setting": "[1]", "result": 4.6, "unit": "pM"}, {"measurement": "Ki", "setting": "[2]", "result": 0.7, "unit": "pM"}]}
